Test results taken from PMC11672854.

What was measured:
Assay in all cases: ELISA
[1] = biological target: anti-AGR2 monoclonal antibody MAb-15 (VH-VL of scFv-15 in a full human IgG1 backbone); conditions: chain shown with the change; point at 1000 pM mAb-15 (highest concentration); plate coated with the AGR2 mutant; parent: est. 2.8; read off a plot
BSA, P02769 = conditions: chain shown with the change; plates coated with AGR2 or BSA (control); parent: 101
PDI (PDIA1), P07237 = conditions: chain shown with the change; plates coated with AGR2 or PDI (PDIA1); parent: 40
[2] = biological target: T1, Thioredoxin (TXN), P10599; conditions: chain shown with the change; plates coated with AGR2 or thioredoxin (TXN); parent: 30
T1 chain: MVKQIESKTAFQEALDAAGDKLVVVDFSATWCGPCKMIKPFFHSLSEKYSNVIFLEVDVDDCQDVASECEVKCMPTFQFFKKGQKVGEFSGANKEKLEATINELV

Sequence of anti-AGR2 monoclonal antibody MAb-15 (VH-VL of scFv-15 in a full human IgG1 backbone) (chain, as listed by the source, chain 1 of 2, one chain of several): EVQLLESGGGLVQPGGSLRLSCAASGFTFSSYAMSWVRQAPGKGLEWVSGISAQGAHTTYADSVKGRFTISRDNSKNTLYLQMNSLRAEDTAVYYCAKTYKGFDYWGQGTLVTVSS
Sequence of BSA, P02769 (P02769 25-607): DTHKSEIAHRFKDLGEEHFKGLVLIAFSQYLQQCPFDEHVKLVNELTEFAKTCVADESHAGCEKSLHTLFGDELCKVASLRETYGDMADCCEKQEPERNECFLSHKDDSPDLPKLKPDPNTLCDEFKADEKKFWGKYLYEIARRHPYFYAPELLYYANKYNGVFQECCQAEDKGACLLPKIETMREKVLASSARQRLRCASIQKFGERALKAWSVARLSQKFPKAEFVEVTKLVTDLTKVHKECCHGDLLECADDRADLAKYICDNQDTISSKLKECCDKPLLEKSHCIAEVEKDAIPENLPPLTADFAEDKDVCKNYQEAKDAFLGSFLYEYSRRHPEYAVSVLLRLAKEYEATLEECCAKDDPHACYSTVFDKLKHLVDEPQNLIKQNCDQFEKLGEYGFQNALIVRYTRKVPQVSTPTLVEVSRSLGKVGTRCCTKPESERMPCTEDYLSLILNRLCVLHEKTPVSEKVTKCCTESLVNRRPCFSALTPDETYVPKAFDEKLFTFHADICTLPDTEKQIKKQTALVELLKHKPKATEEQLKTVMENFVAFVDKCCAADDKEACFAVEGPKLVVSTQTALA
Sequence of PDI (PDIA1), P07237 (P07237 18-508): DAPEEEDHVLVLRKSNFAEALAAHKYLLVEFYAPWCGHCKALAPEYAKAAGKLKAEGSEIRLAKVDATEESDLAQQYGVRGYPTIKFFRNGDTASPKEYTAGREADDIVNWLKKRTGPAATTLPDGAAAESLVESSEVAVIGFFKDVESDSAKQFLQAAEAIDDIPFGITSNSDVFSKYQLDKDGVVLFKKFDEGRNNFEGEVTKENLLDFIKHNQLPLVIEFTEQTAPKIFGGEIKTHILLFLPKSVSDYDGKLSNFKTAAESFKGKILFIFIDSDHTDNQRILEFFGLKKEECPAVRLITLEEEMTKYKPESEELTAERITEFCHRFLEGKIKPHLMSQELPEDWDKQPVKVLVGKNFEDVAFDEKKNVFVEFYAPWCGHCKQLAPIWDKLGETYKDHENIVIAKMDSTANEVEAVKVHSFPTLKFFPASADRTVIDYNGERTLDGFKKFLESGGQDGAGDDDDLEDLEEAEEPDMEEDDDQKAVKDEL

| Binder | response [1] | other: AGR2 Specificity, BSA/AGR2 (EC50 relative to AGR2 binding) (BSA, P02769) | other: AGR2 Specificity, PDI/AGR2 (EC50 relative to AGR2 binding) (PDI (PDIA1), P07237) | other: AGR2 Specificity, TXN/AGR2 (EC50 relative to AGR2 binding) [2] |
| --- | --- | --- | --- | --- |
| Anterior Gradient-2 (AGR2/PDIA17), AGR2 (21-175), 6x-His tag removed, O95994 E60A (protein) RDTTVKPGAKKDTKDSRPKLPQTLSRGWGDQLIWTQTYEAALYKSKTSNKPLMIIHHLDECPHSQALKKVFAENKEIQKLAEQFVLLNLVYETTDKHLSPDGQYVPRIMFVDPSLTVRADITGRYSNRLYAYEPADTALLLDNMKKALKLLKTEL | 2.3 OD450 | – | – | – |
| Anterior Gradient-2 (AGR2/PDIA17), AGR2 (21-175), 6x-His tag removed, O95994 C81A; S84A (protein) RDTTVKPGAKKDTKDSRPKLPQTLSRGWGDQLIWTQTYEEALYKSKTSNKPLMIIHHLDEAPHAQALKKVFAENKEIQKLAEQFVLLNLVYETTDKHLSPDGQYVPRIMFVDPSLTVRADITGRYSNRLYAYEPADTALLLDNMKKALKLLKTEL | 2.3 OD450 | – | – | – |
| Anterior Gradient-2 (AGR2/PDIA17), AGR2 (21-175), 6x-His tag removed, O95994 C81A (protein) RDTTVKPGAKKDTKDSRPKLPQTLSRGWGDQLIWTQTYEEALYKSKTSNKPLMIIHHLDEAPHSQALKKVFAENKEIQKLAEQFVLLNLVYETTDKHLSPDGQYVPRIMFVDPSLTVRADITGRYSNRLYAYEPADTALLLDNMKKALKLLKTEL | 2.8 OD450 | – | – | – |
| Anterior Gradient-2 (AGR2/PDIA17), AGR2 (21-175), 6x-His tag removed, O95994 S84A (protein) RDTTVKPGAKKDTKDSRPKLPQTLSRGWGDQLIWTQTYEEALYKSKTSNKPLMIIHHLDECPHAQALKKVFAENKEIQKLAEQFVLLNLVYETTDKHLSPDGQYVPRIMFVDPSLTVRADITGRYSNRLYAYEPADTALLLDNMKKALKLLKTEL | 2.7 OD450 | – | – | – |
| anti-AGR2 monoclonal antibody MAb-15 (VH-VL of scFv-15 in a full human IgG1 backbone) S31R; A53Y (protein) chain 1: EVQLLESGGGLVQPGGSLRLSCAASGFTFSRYAMSWVRQAPGKGLEWVSGISYQGAHTTYADSVKGRFTISRDNSKNTLYLQMNSLRAEDTAVYYCAKTYKGFDYWGQGTLVTVSS chain 2: DIQMTQSPSSLSASVGDRVTITCRASQSISSYLNWYQQKPGKAPKLLIYSASRLQSGVPSRFSGSGSGTDFTLTISSLQPEDFATYYCQQGRRMPPTFGQGTKVEIK | – | 751 | 451 | 266 |
